T1: CD22 (antigen in the Biacore assay) (human, UniProt P20273 20-687, limits assumed)
T1 sequence: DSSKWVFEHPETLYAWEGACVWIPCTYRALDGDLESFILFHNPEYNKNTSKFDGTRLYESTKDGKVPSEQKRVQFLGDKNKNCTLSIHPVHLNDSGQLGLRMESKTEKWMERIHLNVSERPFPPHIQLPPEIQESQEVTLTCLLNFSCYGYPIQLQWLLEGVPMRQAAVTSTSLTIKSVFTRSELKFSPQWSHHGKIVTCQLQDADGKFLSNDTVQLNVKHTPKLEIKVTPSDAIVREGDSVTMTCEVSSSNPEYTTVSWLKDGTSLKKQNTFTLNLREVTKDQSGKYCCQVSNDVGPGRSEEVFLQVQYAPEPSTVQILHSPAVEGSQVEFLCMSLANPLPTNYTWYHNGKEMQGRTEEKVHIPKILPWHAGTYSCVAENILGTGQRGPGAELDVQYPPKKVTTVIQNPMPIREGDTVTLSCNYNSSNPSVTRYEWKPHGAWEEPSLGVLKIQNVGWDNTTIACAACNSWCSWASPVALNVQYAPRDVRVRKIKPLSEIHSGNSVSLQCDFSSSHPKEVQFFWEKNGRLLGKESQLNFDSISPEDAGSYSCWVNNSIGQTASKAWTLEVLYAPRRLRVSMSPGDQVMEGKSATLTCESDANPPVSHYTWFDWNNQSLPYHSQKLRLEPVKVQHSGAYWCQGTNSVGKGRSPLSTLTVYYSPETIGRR

T2: CD22 (UniProtKB-P20273) on CD22(+) cells (human, UniProt P20273 20-847)
T2 construct: Endogenous CD22 on the NALM6 and Raji cell lines; also called SIGLEC-2; BL-CAM
T2 sequence: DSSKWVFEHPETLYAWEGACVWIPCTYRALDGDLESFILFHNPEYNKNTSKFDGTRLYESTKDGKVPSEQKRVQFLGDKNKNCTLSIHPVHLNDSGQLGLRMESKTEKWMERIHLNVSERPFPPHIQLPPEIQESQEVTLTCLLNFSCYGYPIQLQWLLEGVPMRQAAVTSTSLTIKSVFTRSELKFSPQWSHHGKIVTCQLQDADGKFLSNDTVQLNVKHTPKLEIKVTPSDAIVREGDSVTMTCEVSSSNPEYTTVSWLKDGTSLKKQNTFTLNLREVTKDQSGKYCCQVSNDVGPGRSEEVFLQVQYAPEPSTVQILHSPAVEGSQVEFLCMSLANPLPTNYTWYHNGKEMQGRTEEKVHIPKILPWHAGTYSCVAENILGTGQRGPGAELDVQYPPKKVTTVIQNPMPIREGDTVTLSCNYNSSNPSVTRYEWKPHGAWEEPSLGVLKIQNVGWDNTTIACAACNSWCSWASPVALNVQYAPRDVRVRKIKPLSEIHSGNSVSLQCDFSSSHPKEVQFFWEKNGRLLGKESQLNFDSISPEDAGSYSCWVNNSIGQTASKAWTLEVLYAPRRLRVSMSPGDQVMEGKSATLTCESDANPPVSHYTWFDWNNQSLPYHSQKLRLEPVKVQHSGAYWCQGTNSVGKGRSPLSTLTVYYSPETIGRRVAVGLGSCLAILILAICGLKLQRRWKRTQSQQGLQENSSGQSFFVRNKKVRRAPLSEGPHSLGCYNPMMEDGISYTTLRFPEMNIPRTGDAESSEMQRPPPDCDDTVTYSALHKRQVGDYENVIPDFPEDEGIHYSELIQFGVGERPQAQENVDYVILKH

B1: chimeric LL2 antibody (antibody, V domains shown)
VH: QVQLQESGAELSKPGASVKMSCKASGYTFTSYWLHWIKQRPGQGLEWIGYINPRNDYTEYNQNFKDKATLTADKSSSTAYMQLSSLTSEDSAVYYCARRDITTFYWGQGTTLTVSS
VL: DIQLTQSPSSLAVSAGENVTMSCKSSQSVLYSANHKNYLAWYQQKPGQSPKLLIYWASTRESGVPDRFTGSGSGTDFTLTISRVQVEDLAIYYCHQYLSSWTFGGGTKLEIK
notes: Murine LL2 variable domains with human constant domains (IgG1)
B2: humanized LL2 L1 + H9 (antibody, V domains shown)
VH: QVQLVQSGAEVKKPGASVKVSCKASGYTFTSYWLHWVRQAPGQRLEWIGYINPRNDYTEYNQNFKDRVTITADTSASTAYMELSSLRSEDTAVYYCARRDITTFYWGQGTTLTVSS
VL: DIVLTQSPDSLAVSAGERVTMNCKSSQSVLYSANHKNYLAWYQQKPGQPPKLLIYWASTRESGVPDRFSGSGSGTDFTLTISSVQAEDVAIYYCHQYLSSWTFGGGTKLEIK
notes: Human IgG1 frameworks; also called H9L1
B3: humanized LL2 L2 + H2 (antibody, V domains shown)
VH: QVQLQESGAEVKKPGASVKMSCKASGYTFTSYWLHWIRQAPGQRLEWIGYINPRNDYTKYSQKFQGRVTLTRDKSASTAYMELSSLRSEDTAVYYCARRDITTFYWGQGTTLTVSS
VL: DIVLTQSPDSLAVSLGERVTMNCKSSQSVLYSANHKNYLAWYQQKPGQSPKLLIYWASTRESGVPDRFSGSGSGTDFTLTISSVQAEDVAIYYCHQYLSSWTFGGGTKLEIK
notes: Human IgG1 frameworks
B4: humanized LL2 L1 + H8 (antibody, V domains shown)
VH: QVQLVESGAEVKKPGASVKVSCKASGYTFTSYWLHWIRQAPGQRLEWMGYINPRNDYTEYNQNFKDRVTITRDTSASTAYMELSSLRSEDTAVYYCARRDITTFYWGQGTTLTVSS
VL: DIVLTQSPDSLAVSAGERVTMNCKSSQSVLYSANHKNYLAWYQQKPGQPPKLLIYWASTRESGVPDRFSGSGSGTDFTLTISSVQAEDVAIYYCHQYLSSWTFGGGTKLEIK
notes: Human IgG1 frameworks
B5: humanized LL2 L2 + H6 (antibody, V domains shown)
VH: QVQLQQSGAEVKKPGASVKVSCKASGYTFTSYWLHWIRQAPGQRLEWMGYINPRNDYTEYNQNFKDRVTITRDTSASTAYMELSSLRSEDTAVYYCARRDITTFYWGQGTTLTVSS
VL: DIVLTQSPDSLAVSLGERVTMNCKSSQSVLYSANHKNYLAWYQQKPGQSPKLLIYWASTRESGVPDRFSGSGSGTDFTLTISSVQAEDVAIYYCHQYLSSWTFGGGTKLEIK
notes: Human IgG1 frameworks
B6: humanized LL2 L2 + H3 (antibody, V domains shown)
VH: QVQLQQSGAEVKKPGASVKVSCKASGYTFTSYWLHWIRQAPGQRLEWIGYINPRNDYTEYSQKFQGRATLTADTSASTAYMELSSLRSEDTAVYYCARRDITTFYWGQGTTLTVSS
VL: DIVLTQSPDSLAVSLGERVTMNCKSSQSVLYSANHKNYLAWYQQKPGQSPKLLIYWASTRESGVPDRFSGSGSGTDFTLTISSVQAEDVAIYYCHQYLSSWTFGGGTKLEIK
notes: Human IgG1 frameworks
B7: humanized LL2 L2 + H7 (antibody, V domains shown)
VH: QVQLVESGAEVKKPGASVKVSCKASGYTFTSYWLHWVRQAPGQRLEWMGYINPRNDYTEYNQNFKDRATITRDTSASTAYMELSSLRSEDTAVYYCARRDITTFYWGQGTTLTVSS
VL: DIVLTQSPDSLAVSLGERVTMNCKSSQSVLYSANHKNYLAWYQQKPGQSPKLLIYWASTRESGVPDRFSGSGSGTDFTLTISSVQAEDVAIYYCHQYLSSWTFGGGTKLEIK
notes: Human IgG1 frameworks
B8: humanized LL2 L2 + H8 (antibody, V domains shown)
VH: QVQLVESGAEVKKPGASVKVSCKASGYTFTSYWLHWIRQAPGQRLEWMGYINPRNDYTEYNQNFKDRVTITRDTSASTAYMELSSLRSEDTAVYYCARRDITTFYWGQGTTLTVSS
VL: DIVLTQSPDSLAVSLGERVTMNCKSSQSVLYSANHKNYLAWYQQKPGQSPKLLIYWASTRESGVPDRFSGSGSGTDFTLTISSVQAEDVAIYYCHQYLSSWTFGGGTKLEIK
notes: Human IgG1 frameworks
B9: humanized LL2 L2 + H12 (antibody, V domains shown)
VH: QVQLQQSGAEVKKPGASVKMSCKASGYTFTSYWLHWVRQAPGQRLEWMGYINPRNDYTEYNQNFKDRVTITADTSASTAYMELSSLRSEDTAVYYCARRDITTFYWGQGTTLTVSS
VL: DIVLTQSPDSLAVSLGERVTMNCKSSQSVLYSANHKNYLAWYQQKPGQSPKLLIYWASTRESGVPDRFSGSGSGTDFTLTISSVQAEDVAIYYCHQYLSSWTFGGGTKLEIK
notes: Human IgG1 frameworks
B10: humanized LL2 L1 + H7 (antibody, V domains shown)
VH: QVQLVESGAEVKKPGASVKVSCKASGYTFTSYWLHWVRQAPGQRLEWMGYINPRNDYTEYNQNFKDRATITRDTSASTAYMELSSLRSEDTAVYYCARRDITTFYWGQGTTLTVSS
VL: DIVLTQSPDSLAVSAGERVTMNCKSSQSVLYSANHKNYLAWYQQKPGQPPKLLIYWASTRESGVPDRFSGSGSGTDFTLTISSVQAEDVAIYYCHQYLSSWTFGGGTKLEIK
notes: Human IgG1 frameworks
B11: humanized LL2 L2 + H11 (antibody, V domains shown)
VH: QVQLVQSGAEVKKPGASVKMSCKASGYTFTSYWLHWVRQAPGQRLEWMGYINPRNDYTEYNQNFKDRATITADTSASTAYMELSSLRSEDTAVYYCARRDITTFYWGQGTTLTVSS
VL: DIVLTQSPDSLAVSLGERVTMNCKSSQSVLYSANHKNYLAWYQQKPGQSPKLLIYWASTRESGVPDRFSGSGSGTDFTLTISSVQAEDVAIYYCHQYLSSWTFGGGTKLEIK
notes: Human IgG1 frameworks
B12: humanized LL2 L2 + H10 (antibody, V domains shown)
VH: QVQLVQSGAEVKKPGASVKVSCKASGYTFTSYWLHWVRQAPGQRLEWMGYINPRNDYTEYNQNFKDRVTLTADKSASTAYMELSSLRSEDTAVYYCARRDITTFYWGQGTTLTVSS
VL: DIVLTQSPDSLAVSLGERVTMNCKSSQSVLYSANHKNYLAWYQQKPGQSPKLLIYWASTRESGVPDRFSGSGSGTDFTLTISSVQAEDVAIYYCHQYLSSWTFGGGTKLEIK
notes: Human IgG1 frameworks
B13: humanized LL2 L2 + H5 (antibody, V domains shown)
VH: QVQLQESGAEVKKPGASVKVSCKASGYTFTSYWLHWVRQAPGQRLEWIGYINPRNDYTEYSQKFQGRATLTADTSASTAYMELSSLRSEDTAVYYCARRDITTFYWGQGTTLTVSS
VL: DIVLTQSPDSLAVSLGERVTMNCKSSQSVLYSANHKNYLAWYQQKPGQSPKLLIYWASTRESGVPDRFSGSGSGTDFTLTISSVQAEDVAIYYCHQYLSSWTFGGGTKLEIK
notes: Human IgG1 frameworks
B14: humanized LL2 L2 + H9 (antibody, V domains shown)
VH: QVQLVQSGAEVKKPGASVKVSCKASGYTFTSYWLHWVRQAPGQRLEWIGYINPRNDYTEYNQNFKDRVTITADTSASTAYMELSSLRSEDTAVYYCARRDITTFYWGQGTTLTVSS
VL: DIVLTQSPDSLAVSLGERVTMNCKSSQSVLYSANHKNYLAWYQQKPGQSPKLLIYWASTRESGVPDRFSGSGSGTDFTLTISSVQAEDVAIYYCHQYLSSWTFGGGTKLEIK
notes: Human IgG1 frameworks
B15: humanized LL2 L2 + H4 (antibody, V domains shown)
VH: QVQLQQSGAEVKKPGASVKMSCKASGYTFTSYWLHWIRQAPGQRLEWMGYINPRNDYTEYNQKFQGRATITADKSASTAYMELSSLRSEDTAVYYCARRDITTFYWGQGTTLTVSS
VL: DIVLTQSPDSLAVSLGERVTMNCKSSQSVLYSANHKNYLAWYQQKPGQSPKLLIYWASTRESGVPDRFSGSGSGTDFTLTISSVQAEDVAIYYCHQYLSSWTFGGGTKLEIK
notes: Human IgG1 frameworks
B16: humanized LL2 L1 + H1 (antibody, V domains shown)
VH: QVQLVESGAEVKKPGASVKMSCKASGYTFTSYWLHWIRQAPGQRLEWIGYINPRNDYTKYSQKFQGRATITADKSASTAYMELSSLRSEDTAVYYCARRDITTFYWGQGTTLTVSS
VL: DIVLTQSPDSLAVSAGERVTMNCKSSQSVLYSANHKNYLAWYQQKPGQPPKLLIYWASTRESGVPDRFSGSGSGTDFTLTISSVQAEDVAIYYCHQYLSSWTFGGGTKLEIK
notes: Human IgG1 frameworks

Each binder was assayed against T1, CD22 (antigen in the Biacore assay) (assay: SPR (Biacore) at 37° C).

Compared with B1, B2 is 18-fold higher in Kd: 0.00137 nM for the first, 0.0248 nM for the second.

Compared with B1, B2 is 14-fold higher in koff: 2.31e-07 s⁻¹ for the first, 3.3e-06 s⁻¹ for the second.

B1 and B2 are within 1.5-fold of each other in kon: 169000 M⁻¹ s⁻¹ for the first, 133000 M⁻¹ s⁻¹ for the second.

The binders below were run against T2, CD22 (UniProtKB-P20273) on CD22(+) cells (assay: flow cytometry on CD22(+) NALM6 cells).

Going from B1 to B3, the “MFI (FACS NALM6)” value falls from 33.4 to 28.1.

Going from B2 to B4, the “MFI (FACS NALM6)” value falls from 34.5 to 23.3.

Going from B5 to B6, the “MFI (FACS NALM6)” value rises from 36.1 to 36.8.

Compared with B7, B8 is lower in “MFI (FACS NALM6)” value: 27.3 for the first, 26.7 for the second.

First: B9
Second: B10
The “MFI (FACS NALM6)” value of the first is higher: 31.7 for the first, 21.8 for the second.

Compared with B11, B12 is higher in “MFI (FACS NALM6)” value: 36.3 for the first, 37 for the second.

Compared with B13, B14 is lower in “MFI (FACS NALM6)” value: 40.4 for the first, 34.3 for the second.

Compared with B15, B16 is lower in “MFI (FACS NALM6)” value: 35.9 for the first, 26.4 for the second.

Reference: patent US20220177581A1 (Memorial Sloan Kettering, published 2022)
